Results from patent US20260022175A1 (Chugai, published 2026).
Residue numbers refer to the chain shown, from its start.

Columns and labels:
[1] = biological target: T1, human FcγRIIa H extracellular domain (human, UniProt P12318 34-217); assay: SPR Biacore 8K+; KD of G1d divided by KD of this antibody;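 also: antibodies captured on an anti-Fab-kappa streptavidin chip, soluble FcγR ectodomains flowed over, KD by steady-state fit for FcγRIIb and Langmuir kinetic model for the other receptors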
T1 construct: extracellular domain; also called hFcγR IIa H
T1 sequence (looked up): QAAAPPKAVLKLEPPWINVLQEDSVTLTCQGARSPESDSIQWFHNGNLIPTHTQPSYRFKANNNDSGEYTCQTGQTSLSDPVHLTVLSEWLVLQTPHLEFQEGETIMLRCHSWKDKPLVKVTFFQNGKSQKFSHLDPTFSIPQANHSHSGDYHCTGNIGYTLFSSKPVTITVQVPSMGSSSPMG
Procedure: (§1) The interaction between the produced antibodies and human FcγRs was analyzed using Biacore 8K+ by the method below. For the running buffer, 50 mM Na-Phosphate, 150 mM NaCl, and 0.05% Tween20 (pH 7.4) was used, and measurement was performed at 25° C. The sensor chip used was a Series S SA chip (GE Healthcare) onto which CaptureSelect Human Fab-kappa Kinetics Biotin Conjugate (Thermo Fisher Scientific) was immobilized. An antibody of interest was captured onto this chip, and each FcγR diluted with the running buffer was allowed to interact with it. The chip was regenerated using 10 mM Glycine-HCl (pH 1.5), and repeatedly used to capture antibodies and perform measurement. The dissociation constants KD (mol/L) of each antibody for FcγRs were calculated using Biacore Insight Evaluation Software, with a steady state affinity model for the dissociation constant for FcγRIIb and a 1:1 Langmuir binding model for the dissociation constants for the other FcγRs (Table 48).

[2] = biological target: T2, human FcγRIIa R extracellular domain (human, UniProt P12318 34-217); assay: as above
T2 construct: extracellular domain; also called hFcγR IIa R
T2 sequence (looked up): T1 sequence (looked up) with H134R
Procedure: as §1

[3] = biological target: T3, human FcγRIIb extracellular domain (human, UniProt P31994 43-217); assay: as above
T3 construct: extracellular domain; also called hFcγR IIb
T3 sequence (looked up): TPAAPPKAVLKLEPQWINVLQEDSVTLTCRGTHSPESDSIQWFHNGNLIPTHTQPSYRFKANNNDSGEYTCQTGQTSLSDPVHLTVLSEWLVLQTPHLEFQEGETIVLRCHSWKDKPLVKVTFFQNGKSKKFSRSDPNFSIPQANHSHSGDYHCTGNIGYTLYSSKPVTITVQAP
Procedure: as §1

[4] = biological target: T4, human FcγRIIIa V extracellular domain (human, UniProt P08637 17-208); assay: as above
T4 construct: extracellular domain; also called hFcγR IIIa V
Procedure: as §1

[5] = biological target: T5, human FcγRIa extracellular domain (human, UniProt P12314 16-292); assay: as above
T5 construct: extracellular domain; also called hFcγR Ia; hFcγRIa
Procedure: as §1

[6] = biological target: T6, human FcγRIIIa F extracellular domain (human, UniProt P08637 17-208); assay: as above
T6 construct: extracellular domain; also called hFcγR IIIa F
Procedure: as §1

[7] = biological target: T3, human FcγRIIb extracellular domain; assay: SPR Biacore 8K+, antibody captured, FcγR as analyte, steady state affinity model
[8] = biological target: T1, human FcγRIIa H extracellular domain; assay: SPR Biacore 8K+; KD for FcγRIIb divided by KD for this FcγR;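 also: antibodies captured on an anti-human Fab kappa SA chip with soluble human FcγR ectodomains flowed over, FcγRIIb KD from steady-state fit, other FcγR KD from Langmuir model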
Procedure: as §1

[9] = biological target: T2, human FcγRIIa R extracellular domain; assay: as above
Procedure: as §1

[10] = biological target: T4, human FcγRIIIa V extracellular domain; assay: as above
Procedure: as §1

[11] = biological target: T6, human FcγRIIIa F extracellular domain; assay: as above
Procedure: as §1

[12] = biological target: hFcγRIIIaV on hFcγRIIIaV-expressing Jurkat cells (human, UniProt P08637 17-254); assay: cell-based or functional assay
[13] = biological target: T7, human C1q protein (Calbiochem) (human, UniProt P02745 23-245; P02746 28-253; P02747 29-245); assay: ELISA: antibody coated on the plate at the varied concentration, hC1q 3 µg/mL added, detected with HRP-conjugated anti-hC1q antibody, O.D (450-690nm)
T7 construct: bought; also called hC1q
Procedure: The antigen used was a human C1q protein (hC1q).
First, a 96-well maxisorp plate (Thermo fisher) was coated at 4° C. overnight with 50 μL of solutions containing each antibody prepared at 30, 10, 3, 1, 0.3, 0.1, and 0.03 μg/mL in PBS. Each well of the plate was washed with Wash buffer to remove the antibody not bound to the plate, and then the wells were blocked with 200 μL of Blocking/dilution Buffer at room temperature for 2 hours or longer. After the Blocking/dilution Buffer was removed from each well, hC1q (Calbiochem) prepared such that the final concentration was 3 μg/mL in Blocking/dilution Buffer was added at 50 μL per well. The plate was then allowed to stand at room temperature for 1 hour to allow hC1q to bind to the antibody within each well. After washing with Wash Buffer, 50 μL of an HRP-conjugated anti-hC1q antibody (AbDSerotec) diluted with Blocking/dilution Buffer was added to each well, and the plate was incubated while standing for 1 hour. After washing with Wash Buffer, TMB single solution (Invitrogen) was added. The color development reaction of the solution in each well was stopped by addition of Stop Buffer, and then the developed color was measured by absorbance at 450 nm and 690 nm.

[14] = biological target: T8, hFcγRIIaH on hFcγRIIaH-expressing Jurkat cells (human, UniProt P12318 34-317); assay: cell-based or functional assay
T8 sequence (looked up): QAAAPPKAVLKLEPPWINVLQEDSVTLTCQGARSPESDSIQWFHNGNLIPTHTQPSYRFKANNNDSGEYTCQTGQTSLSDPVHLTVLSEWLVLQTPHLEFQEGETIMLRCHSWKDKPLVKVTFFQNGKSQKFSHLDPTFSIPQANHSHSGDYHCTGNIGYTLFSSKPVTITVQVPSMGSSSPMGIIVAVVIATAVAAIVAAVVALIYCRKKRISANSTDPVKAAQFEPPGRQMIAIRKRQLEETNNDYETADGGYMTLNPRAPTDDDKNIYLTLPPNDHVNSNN

[15] = biological target: T1, human FcγRIIa H extracellular domain; assay: SPR Biacore 8K+, antibody captured, FcγR as analyte, 1:1 Langmuir model;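 also: antibodies captured on a streptavidin chip through a biotinylated anti-human Fab kappa reagent, with FcγR extracellular domains injected in pH 7.4 phosphate buffer at 25 °C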
[16] = biological target: T2, human FcγRIIa R extracellular domain; assay: as above
[17] = biological target: T4, human FcγRIIIa V extracellular domain; assay: as above
[18] = biological target: T5, human FcγRIa extracellular domain; assay: as above
[19] = biological target: T6, human FcγRIIIa F extracellular domain; assay: as above
human CTLA4 [20] = biological target: T9, human CTLA4 (human); assay: SPR, 37C, antibody captured by anti-mouse IgG, ATP 100 uM
T9 construct: also called hCTLA4; hCTLA4-His-BAP
Procedure: (§2) 20 mM ACES (pH 7.4), 150 mM NaCl, 2 mM MgCl₂, 0.05% Tween 20 with ATP added to the desired concentrations was used as the running buffer, and the assay was performed at 37° C. First, Rabbit Anti-Mouse IgG (Thermo Fisher Scientific) was immobilized onto Series S Sensor Chips CM5 (GE Healthcare), and the antibody was captured onto the chip by interacting an antibody solution prepared in an ATP-free running buffer. Next, the binding ability of the antibody to human CTLA4 in the presence or absence of ATP was evaluated by interacting with a human CTLA4 solution prepared in a running buffer with ATP added to the desired concentration, or a human CTLA4 solution prepared in an ATP-free running buffer. Chips were regenerated with 25 mM NaOH and 10 mM Glycine-HCl (pH 1.5) and assay was performed by repeatedly capturing antibodies. The dissociation constant of each antibody for CTLA4 was calculated using Biacore T200 Evaluation Software 2.0. Specifically, the binding rate constant ka (L/mol/s) and the dissociation rate constant kd (1/s) were calculated by global fitting of the sensorgrams obtained by the measurement using the 1:1 Langmuir binding model, and the dissociation constant KD (mol/L) was calculated from those values.

human CTLA4 [21] = biological target: T9, human CTLA4; assay: SPR, 37C, antibody captured by anti-mouse IgG, ATP 10 uM
Procedure: as §2

human CTLA4 [22] = biological target: T9, human CTLA4; assay: SPR, 37C, antibody captured by anti-mouse IgG, ATP 1 uM
Procedure: as §2

T4 sequence (P08637 17-208 F176V limits assumed): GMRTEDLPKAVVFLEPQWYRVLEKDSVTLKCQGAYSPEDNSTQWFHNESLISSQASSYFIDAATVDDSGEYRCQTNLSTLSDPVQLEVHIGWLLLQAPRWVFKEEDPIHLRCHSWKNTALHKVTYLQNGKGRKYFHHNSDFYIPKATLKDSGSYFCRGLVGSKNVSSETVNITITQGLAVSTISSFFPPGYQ
T6 sequence (P08637 17-208): as the sequence (P08637 17-208 F176V limits assumed) above, with V160F counted along it
T9 sequence (chain, as listed by the source limits assumed): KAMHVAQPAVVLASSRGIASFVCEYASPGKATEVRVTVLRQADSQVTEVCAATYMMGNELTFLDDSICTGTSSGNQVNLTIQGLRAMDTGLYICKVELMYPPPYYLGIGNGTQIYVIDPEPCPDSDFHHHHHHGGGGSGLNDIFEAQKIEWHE
T5 sequence (P12314 16-292): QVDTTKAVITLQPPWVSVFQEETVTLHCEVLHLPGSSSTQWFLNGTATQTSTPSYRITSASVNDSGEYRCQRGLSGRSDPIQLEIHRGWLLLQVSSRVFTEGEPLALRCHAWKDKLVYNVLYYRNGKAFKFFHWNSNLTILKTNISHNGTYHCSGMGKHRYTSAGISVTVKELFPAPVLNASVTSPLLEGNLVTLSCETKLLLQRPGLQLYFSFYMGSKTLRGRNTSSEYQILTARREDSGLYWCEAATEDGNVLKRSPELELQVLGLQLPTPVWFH
Sequence of hFcγRIIIaV on hFcγRIIIaV-expressing Jurkat cells (P08637 17-254, form in doubt): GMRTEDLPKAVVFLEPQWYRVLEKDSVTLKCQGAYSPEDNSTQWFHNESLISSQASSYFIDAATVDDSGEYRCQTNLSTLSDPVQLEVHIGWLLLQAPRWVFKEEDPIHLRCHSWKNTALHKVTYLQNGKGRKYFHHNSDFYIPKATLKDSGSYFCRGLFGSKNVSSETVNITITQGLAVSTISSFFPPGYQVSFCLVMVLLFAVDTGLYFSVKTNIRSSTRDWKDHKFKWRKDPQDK
T7 sequence (P02745 23-245 limits assumed, chain 1 of 3): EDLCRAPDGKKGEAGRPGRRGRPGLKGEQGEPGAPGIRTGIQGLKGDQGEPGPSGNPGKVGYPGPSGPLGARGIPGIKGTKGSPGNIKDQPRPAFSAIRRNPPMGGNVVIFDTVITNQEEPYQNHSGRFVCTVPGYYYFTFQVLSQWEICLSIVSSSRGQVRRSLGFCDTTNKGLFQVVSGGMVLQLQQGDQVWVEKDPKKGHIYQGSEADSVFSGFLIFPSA
T7 sequence (P02746 28-253 limits assumed, chain 2 of 3): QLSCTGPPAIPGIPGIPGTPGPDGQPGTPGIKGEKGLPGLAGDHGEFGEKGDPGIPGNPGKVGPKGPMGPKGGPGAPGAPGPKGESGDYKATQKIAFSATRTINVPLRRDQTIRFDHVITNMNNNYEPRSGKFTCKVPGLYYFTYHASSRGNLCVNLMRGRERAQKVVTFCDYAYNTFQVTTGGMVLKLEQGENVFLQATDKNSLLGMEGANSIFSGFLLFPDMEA
T7 sequence (P02747 29-245 limits assumed, chain 3 of 3): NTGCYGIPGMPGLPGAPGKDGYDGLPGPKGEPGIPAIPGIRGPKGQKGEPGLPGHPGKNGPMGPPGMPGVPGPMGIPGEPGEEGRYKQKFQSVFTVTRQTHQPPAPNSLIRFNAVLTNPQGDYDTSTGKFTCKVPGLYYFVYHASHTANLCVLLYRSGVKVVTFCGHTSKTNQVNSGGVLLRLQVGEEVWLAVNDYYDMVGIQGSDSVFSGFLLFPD

B1: H240-Kn496/L73-k0//H240-Hl516/L73-k0 (antibody, human IgG1, kappa)
heavy 1: QDQLVQSGAEVKKPGASVKVSCKASGFNIKDTYIQWVRQAPGQGLEWMGRIDPLRKQTKYREKFEGRVTITADTSTNTAYMELSSLRSEDTAVYYCVRSGREFDYWGQGTLVTVSSASTKGPSVFPLAPSSKSTSGGTAALGCLVKDYFPEPVTVSWNSGALTSGVHTFPAVLQSSGLYSLSSVVTVPSSSLGTQTYICNVNHKPSNTKVDKKVEPKSCDKTHTCPPCPAPEFQWGPMVFLFPPKPKDVLMISRTPEVTCVVVDVSDEEPEVKFNWYVDGVEVHNAKTKPREEQYNATYRVVSVLPVLHQDWLNGKEYKCKVSNKALPAPIEKTISKAKGQPREPQVCTLPPSRDELTKNQVSLWCLVKGFYPSDIAVEWESNGQPENNYKTTPPVLDSDGSFFLYSKLTVDKSRWQQGNVFSCSVMHEALHNHYTQKSLSLSP
heavy 2: QDQLVQSGAEVKKPGASVKVSCKASGFNIKDTYIQWVRQAPGQGLEWMGRIDPLRKQTKYREKFEGRVTITADTSTNTAYMELSSLRSEDTAVYYCVRSGREFDYWGQGTLVTVSSASTKGPSVFPLAPSSKSTSGGTAALGCLVKDYFPEPVTVSWNSGALTSGVHTFPAVLQSSGLYSLSSVVTVPSSSLGTQTYICNVNHKPSNTKVDKKVEPKSCDKTHTCPPCPAPELLGGPSVFLFPPKPKDVLMISRTPEVTCVVVDVSHEEPEVKFNWYVDGVEVHNAKTKPREEQYNATYRVVSVLPVLHQDWLNGKEYKCKVSNDALPAPIEETISKAKGQPREPQVYTLPPSRCELTKNQVSLSCAVKGFYPSDIAVEWESNGQPENNYKTTPPVLDSDGSFFLVSKLTVDKSRWQQGNVFSCSVMHEALHNHYTQKSLSLSP
light: DIQMTQSPSSLSASVGDRVTITCRASQDIHKYIAWYQQKPGQAPRLLIQYTSTLQPGVPSRFSGSGSGTDYTFTISSLQPEDIATYYCLQYEQLRTFGGGTKVEIKRTVAAPSVFIFPPSDEQLKSGTASVVCLLNNFYPREAKVQWKVDNALQSGNSQESVTEQDSKDSTYSLSSTLTLSKADYEKHKVYACEVTHQGLSSPVTKSFNRGEC
notes: also called EGL-ART11; ART11
In the case of B1, the “Relative value to KD between G1d and hFcgRs” value (from here on “Relative value”) [1] is reported as 4.9, the “Relative value” value [2] is reported as 1.3 and the “Relative value” value [3] is reported as 0.7. For the same binder, the “Relative value” value [4] was 97.5, the “Relative value” value [5] was 2.4 and the “Relative value” value [6] was 141. For the same binder, the Kd [7] was 14600 nM, the “A/I ratio (KD for FcγRIIb divided by KD for each FcγR)” value [8] was 63.3 and the “A/I ratio (KD for FcγRIIb divided by KD for each FcγR)” value [9] was 11.5. For the same binder, the “A/I ratio (KD for FcγRIIb divided by KD for each FcγR)” value [10] was 3970, the “A/I ratio (KD for FcγRIIb divided by KD for each FcγR)” value [11] was 694 and the “EC50 value (hFcγRIIIaV ADCC Reporter Bioassay, Hepa1-6/hEREG target cells)” value [12] was 0.000413 µg/mL. For the same binder, the binding result [13] was “binds”, the “EC50 value (hFcγRIIaH ADCP Reporter Bioassay, Hepa1-6/hEREG target cells)” value [14] was 0.0367 µg/mL and the Kd [15] was 231 nM. The Kd [16] was 1270 nM, the Kd [17] was 3.67 nM and the Kd [18] was 0.0381 nM. For the same binder, the Kd [19] was 21 nM.

B2: 04H1389-mFa55/04L1615-mk1 (antibody, mouse IgG2a, kappa)
heavy: EVQLVESGGGLVKPGGSLRLSCAASGFTFSSKTMNWVRQAPGKGLEWVSSISTQSHYIYYAESVKGRFTISRDNAKNSLYLQMNSLRAEDTAVYYCARYGKREDMLWVFDYWGQGTLVTVSSAKTTAPSVYPLAPVCGDTTGSSVTLGCLVKGYFPEPVTLTWNSGSLSSGVHTFPAVLQSDLYTLSSSVTVTSSTWPSQSITCNVAHPASSTKVDKKIEPRGPTIKPCPPCKCPAPNLLGGPDVFIFPPKIKDVLMISLSPIVTCVVVDVSEDDPDVQISWFVNNVEVHTAQTQTHREDYNSTLRVVSALPIQHQDWMSGKEFKCKVNNKDLPAPIERTISKPKGSVRAPQVYVLPPPEEEMTKKQVTLTCMVTDFMPEDIYVEWTNNGKTELNYKNTEPVLDSDGSYFMYSKLRVEKKNWVERNSYSCSVVHEGLHNHHTTKSFSRTPGK
light: DIVMTQSPLSLPVTPGEPASISCQGPSTGVGDYNYVHWYQQKPGQAPRLLIYFTSKKPSGVPDRFSGSGSGTDFTLKISRVEAEDVGVYYCQTYAAPLGPMFGQGTKLEIKRADAAPTVSIFPPSSEQLTSGGASVVCFLNNFYPKDINVKWKIDGSERQNGVLNSWTDQDSKDSTYSMSSTLTLTKDEYERHNSYTCEATHKTSTSPIVKSFNRNEC
notes: Mouse constant regions mFa55 and mk1; also called SW1615-mFa55
B2 gave a Kd (human CTLA4 [20]) of 8.7 nM, a Kd (human CTLA4 [21]) of 15 nM and a Kd (human CTLA4 [22]) of 45 nM.

B3: 04H1654-mFa55m2P1/04L1610-ml0r (antibody, mouse IgG2a)
heavy: B2 heavy with E1Q, L11V, K13Q, E62R, K65R, D404R
light: QSALTQPPSASGSPGQSVTISCEGPSTGVGDYNWVHWYQQHPGKAPKLMIYFTSKKPSGVPDRFSGSKSGNTASLTVSGLQAEDEADYYCQTYAAPLGPMFGGGTKLTVLGQPKSSPSVTLFPPSSEELETNKATLVCTITDFYPGVVTVDWKVDGTPVTQGMETTQPSKQSNNKYMASSYLTLTARAWERHSSYSCQVTHEGHTVEKSLSRADCS
notes: Mouse constant regions; also called one arm of SW1610-mFa55
In the case of B3, the Kd (human CTLA4 [20]) is reported as 8.5 nM, the Kd (human CTLA4 [21]) is reported as 17 nM and the Kd (human CTLA4 [22]) is reported as 58 nM.

B4: 04H1654-mFa55m2P1/04L1612-ml0r (antibody, mouse IgG2a)
heavy: B2 heavy with E1Q, L11V, K13Q, E62R, K65R, D404R
light: B3 light with N33T, W34Y
notes: Mouse constant regions; also called one arm of SW1612-mFa55
Work on B4 yielded a Kd (human CTLA4 [20]) of 12 nM, a Kd (human CTLA4 [21]) of 29 nM and a Kd (human CTLA4 [22]) of 94 nM.

B5: 04H1656-mFa55m2N1/04L1612-ml0r (antibody, mouse IgG2a)
heavy: B2 heavy with E1Q, L11V, K13Q, K65R, K101A, K414E
light: B3 light with N33T, W34Y
notes: Mouse constant regions; also called other arm of SW1612-mFa55
Binder B5 has a Kd (human CTLA4 [20]) of 10 nM, a Kd (human CTLA4 [21]) of 20 nM and a Kd (human CTLA4 [22]) of 67 nM.

B6: 04H1656-mFa55m2N1/04L1610-ml0r (antibody, mouse IgG2a)
heavy: B2 heavy with E1Q, L11V, K13Q, K65R, K101A, K414E
light: B3 light
notes: Mouse constant regions; also called other arm of SW1610-mFa55
With B6 the Kd (human CTLA4 [20]) was 7.4 nM, the Kd (human CTLA4 [21]) was 13 nM and the Kd (human CTLA4 [22]) was 47 nM.
